Source: paper PMC4455164, “Facilitated Tau Degradation by USP14 Aptamers via Enhanced Proteasome Activity”

B1: USP14-3 mutant (structured_RNA)
RNA: GGGUUCACUGCAGACUUGACGAAGCUUAAAAAAAAGGCUCGUUUGGCCUGCCGAAAAAAGGCCGGGAAAUGGAUCCACAUCUACGAAUUC
B2: USP14-2 mutant (structured_RNA)
RNA: GGGUUCACUGCAGACUUGACGAAGCUUCUGAAAAAAAGUUAGUUUCGCUGGUUUAAAAUCGGUGCGGAAUGGAUCCACAUCUACGAAUUC
B3: USP14-1 mutant (structured_RNA)
RNA: GGGUUCACUGCAGACUUGACGAAGCUUGCAGUGAUGUGCUUCUAAAAAACAACCUAAAAAAAUUGCCAAUGGAUCCACAUCUACGAAUUC

biological target: USP14 (GST-USP14) (UniProt P54578 1-494); test: GST pull-down with RT-PCR; 2 pmol GST-protein on GST sepharose 4B resin + 20 pmol RNA; pull-down buffer not restated; SELEX binding buffer 30 mM Tris-HCl pH 7.5, 150 mM NaCl, 1.5 mM MgCl2, 2 mM DTT, 1% BSA, RT; details: protein: recombinant; tags: N-terminal GST (pGEX-2T)
Sequence (P54578 whole entry): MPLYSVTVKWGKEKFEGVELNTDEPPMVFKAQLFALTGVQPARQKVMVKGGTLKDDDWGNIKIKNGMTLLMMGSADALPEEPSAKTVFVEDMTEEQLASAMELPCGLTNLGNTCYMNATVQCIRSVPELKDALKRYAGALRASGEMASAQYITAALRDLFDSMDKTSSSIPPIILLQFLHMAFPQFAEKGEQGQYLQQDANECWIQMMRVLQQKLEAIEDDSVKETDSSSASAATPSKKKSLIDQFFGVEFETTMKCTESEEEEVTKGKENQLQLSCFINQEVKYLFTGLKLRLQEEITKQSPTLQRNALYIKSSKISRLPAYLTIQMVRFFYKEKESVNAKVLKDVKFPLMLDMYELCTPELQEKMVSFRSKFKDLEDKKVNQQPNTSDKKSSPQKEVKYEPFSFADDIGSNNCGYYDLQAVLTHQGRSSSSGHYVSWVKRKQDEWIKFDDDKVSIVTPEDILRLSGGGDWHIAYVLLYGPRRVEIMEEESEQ

Binding result, no binding:
B1, B2, B3, UUUGUCUAGCGCGUAGUGGGGAGAUGUUGUGAUACUGGGG (ssRNA) [control RNA aptamer]
